For series [1] the following is noted: pNPP as substrate, cited from earlier work.
The target of series [2] is T1, EGFR^988-998 peptide, DADEpYLIPQQG (Homo sapiens, UniProt P18031, Q262A).
T1 construct: The catalytic domain of PTP1B (residues 1 to 321) was used for in vitro study; made in house; host or cells: E. coli (pT7-7 plasmids)
T1 sequence (P18031 1-321 Q262A): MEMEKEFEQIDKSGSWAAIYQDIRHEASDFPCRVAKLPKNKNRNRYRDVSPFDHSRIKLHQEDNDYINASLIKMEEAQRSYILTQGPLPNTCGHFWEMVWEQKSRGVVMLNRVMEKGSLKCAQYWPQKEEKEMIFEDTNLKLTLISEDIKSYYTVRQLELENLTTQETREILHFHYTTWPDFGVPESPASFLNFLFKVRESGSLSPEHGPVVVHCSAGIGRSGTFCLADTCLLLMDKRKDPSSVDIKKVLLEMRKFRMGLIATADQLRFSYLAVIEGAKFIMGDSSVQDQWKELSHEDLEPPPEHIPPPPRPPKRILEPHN
To be noted: cited from earlier work.

Series [3] has as its system EGFR^988-998 peptide, DADEpYLIPQQG. As to the kind of experiment: Kinetic constants for PTP1B-catalyzed hydrolysis of pTyr-containing EGFR988-998 peptide. It counts as biochemical. The settings on record: EGFR988-998 peptide as substrate; 25° C. and pH 7.0. From the text:
(§1) The catalytic domain of PTP1B (residues 1 to 321) was used for in vitro study. PTP1B mutants, C215S, D181A, and Q262A, were described previously (9, 25, 26). PTP1B double mutants, D181A/C215S and C215S/Q262A, were generated by PCR reactions, according to the standard procedure of the Quick-Change™ site-directed mutagenesis kit (Stratagene), using pT7-7/PTP1B/C215S as a template. PTP1B double mutants, D181A/C215E and D181A/Q262A, were generated by similar PCR procedures, using pT7-7/PTP1B/D181A as a template. The recombinant wild-type and mutant PTP1Bs were expressed in E. coli, and purified to homogeneity as described (25, 27). Protein concentration was determined from absorbance measurement at 280 nm, using an absorbance coefficient of 1.24 for 1 mg/ml PTP1B.
All assays were performed at 25° C. in buffer (pH 7.0, ionic strength=0.15 M) containing 50 mM 3,3-dimethylglutarate and 1 mM EDTA. A continuous spectrophotometric assay, previously described (28), was employed to determine kcat and Km for the pTyr-containing peptides. The dephosphorylation reaction was monitored by either an increase in absorbance at 282 nm, or an increase in fluorescence at 305 nm. Fluorometric and absorbance determinations were performed on a Perkin-Elmer LS50B fluorometer and a Perkin-Elmer Lambda 14 spectrophotometer, respectively. The instruments were equipped with a water-jacketed cell holder, permitting maintenance of the reaction mixture at the desired temperature (25° C.).

Series [4] concerns the target Ac-Asp-Ala-Asp-Glu-F2Pmp-Leu-NH2. The settings on record: ITC, 25° C. and pH 7.0; data from (24); cited from earlier work. On the technique in general: Isothermal titration calorimetry measures the heat released or taken up as one component is titrated into another.
Series [5] can be described thus: Kinetic constants for PTP1B-catalyzed hydrolysis of pNPP. It counts as biochemical. The settings on record: pNPP as substrate; 25° C. and pH 7.0.
Text: as §1
PTP activity was assayed at 25° C. and pH 7.0, in a reaction mixture (0.2 ml) containing pNPP concentrations ranging from 0.2 to 5 Km. The following buffered solution was used for activity measurements: pH 7.0, 50 mM 3,3-dimethylglutarate, 1 mM EDTA; the ionic strength was 0.15 M, as adjusted by addition of NaCl. Initial rate measurements for the enzyme-catalyzed hydrolysis of pNPP were conducted as previously described (26). Michaelis-Menten kinetic parameters were determined from a direct fit of the data to the Michaelis-Menten equation, using the nonlinear regression program, KINETASYST (Intellikinetics, State College, Pa.).

In another series the test system is EGF receptor. In words: Substrate protection: EGF receptor tyrosine phosphorylation in COS1 cells expressing PTP1B forms (anti-pTyr Western blot). It counts as cell-based, Monkey. The settings on record: COS1 cell lysates, anti-pTyr immunoblot (FIG. 4). How it is done: FIG. 4 sets forth Western blots (WB) that show the level of tyrosine phosphorylation in the epidermal growth factor receptor (EGFR) upon expression of the wild-type and mutant PTP1Bs (4 μg plasmid/60 mm dish) in COS1 cells. Samples (50 μg total protein) were taken from the lysates of COS1 cells transfected with 4 μg of pJ3H plasmids expressing HA-tagged wild-type PTP1B, D181A, C215S, D181A/Q262A, or D181A/C215S. These samples were loaded into each lane for SDS-PAGE electrophoresis, and transferred onto a nitrocellulose membrane. The proteins on the membrane were first immunoblotted with anti-pTyr HRP conjugate (upper panel). The membrane was then stripped and re-probed with anti-hemagglutinin (anti-HA) HRP conjugate (lower panel).
The hemagglutinin-tagged (HA-tagged) full-length human wild-type PTP1B in pJ3H expression vector was a gift from Dr. Chemoff (30). The HA-tagged PTP1B mutants, C215S, D181A, D181A/C215S, and D181A/Q262A, were generated by PCR reactions, according to the standard procedure of the Quick-Change™ site-directed mutagenesis kit (Stratagene), using pJ3H-HA-PTP1B as a template. All mutations were verified by DNA sequencing.
Monkey kidney COS1 cells (ATCC: CRL-1650) were maintained in Dulbecco's modified Eagle's minimum essential medium (DMEM), supplemented with 10% fetal bovine serum (Life Technologies, Inc.), penicillin (50 units/ml), streptomycin (50 μg/ml), and L-glutamine (2 mM) under a humidified atmosphere containing 5% CO2. In transient transfection experiments, COS1 cells were inoculated at a density of 2×10^5 cells/60-mm dish, and grown overnight in DMEM containing 10% fetal bovine serum. Transfection was performed using LipoTAXI^R according to the manufacturer's recommendations (Stratagene, Cedar Creek, Tex.). Each transfection assay included 4 μg of purified DNA mixed with LipoTAXI^R in a 1:5 DNA:lipid ratio per 60-mm dish of cells. Following transfection, the cells were exchanged to normal culture medium, and maintained for 44 to 48 h at 37° C. and 5% CO2. The efficiency of transfection, as assessed by 5-bromo-4-chloro-3-indolyl-β-D galactoside (X-Gal) staining of pCMV-β-gal-transfected (β-Gal staining kit, Invitrogen) COS cells, was 25%.
The transfected cells (treated with or without EGF) were lysed with “lysis buffer” containing 50 mM Tris-HC1 (pH 7.5), 5 mM EDTA, 150 mM NaCl, 10 mM sodium phosphate, 10 mM sodium fluoride, 5 mM iodoacetic acid, 1 mM benzamidine, 1% Triton X-100, 10 μg/ml leupeptin, and 5 μg/ml Aprotinin. Lysate protein concentration was estimated using Bio-Rad protein assay reagent (Bio-Rad, Hercules, Calif.).
For immunoprecipitation, 1 mg of cell lysate was immunoprecipitated overnight with 30 μl of agarose-conjugated anti-hemagglutinin antibody at 4° C. Immunocomplexes were washed four times with the cell lysis buffer, and boiled for 5 min in SDS-PAGE sample buffer. Proteins in the cell lysate were separated by 8% SDS-PAGE under reducing conditions, according to the method of Laemmli (31), followed by blotting onto nitrocellulose membranes (Protran, Schleicher & Schuell). The nitrocellulose membranes were blocked with 5% non-fat dry milk in Tris-buffered saline/Tween (TBST) buffer (20 mM Tris-HC1, 150 mM NaCl, 0.1% Tween-20; pH 7.6) for 1 h at 25° C.
Thereafter, blots were incubated overnight with primary antibodies diluted in TBST containing 5% non-fat dry milk at 4° C. […]
For orientation: A western blot detects proteins with antibodies after separation by electrophoresis.

The target of series [6] is T2, EGFR 988-998 peptide DADEpYLIPQQG.
T2 chain: DADEXLIPQQG

Setting [7] is: EGFR988-998 peptide as substrate, 30° C. and pH 7.0 (26).
Where [8] appears, read: hydrolysis of EGFR988-998 peptide and phosphorylated lysozyme, previous kinetic studies (18, 26).

Where a chain is given by its changes, count along the chain named. Names may count otherwise. Read-outs that look alike come from different tables or passages of the source.

B1: Q262A: PTP1B mutant, Gln262 replaced by Ala, described previously (protein, UniProt P18031 1-435, looked up, variant Q262A)
Tyrosine-protein phosphatase …: MEMEKEFEQIDKSGSWAAIYQDIRHEASDFPCRVAKLPKNKNRNRYRDVSPFDHSRIKLHQEDNDYINASLIKMEEAQRSYILTQGPLPNTCGHFWEMVWEQKSRGVVMLNRVMEKGSLKCAQYWPQKEEKEMIFEDTNLKLTLISEDIKSYYTVRQLELENLTTQETREILHFHYTTWPDFGVPESPASFLNFLFKVRESGSLSPEHGPVVVHCSAGIGRSGTFCLADTCLLLMDKRKDPSSVDIKKVLLEMRKFRMGLIATADQLRFSYLAVIEGAKFIMGDSSVQDQWKELSHEDLEPPPEHIPPPPRPPKRILEPHNGKCREFFPNHQWVKEETQEDKDCPIKEEKGSPLNAAPYGIESMSQDTEVRSRVVGGSLRGAQAASPAKGEPSLPEKDEDHALSYWKPFLVNMCVATVLTAGAYLCYRFLFNSNT
As a reminder, the Km is the substrate concentration at which the rate is half of its maximum. For the molecule B1, the Km was 58 ± 6 µM in series [1] (30° C. and pH 7.0 (26)); 0.35 ± 0.05 µM in series [2] (setting [7]). Besides, the kcat was 0.21 ± 0.01 s⁻¹ in series [1] (30° C. and pH 7.0 (26)); 0.29 ± 0.002 s^− in series [2] (setting [7]). Moreover, the “fold reduction of kcat” value is given as 80 fold in series [1] ((26)); 150 fold in series [2] (EGFR988-998 peptide as substrate, (26)); 100 fold in series [2] (setting [8]). Further, the “fold decrease in Km” value is recorded as 38 fold in series [1] (shown previously (26)) and 7.4 fold in series [2] (EGFR988-998 peptide as substrate, shown previously (26)). Moreover, the “fold reduction of kcat/Km” value in series [2] (setting [8]) is listed as 10 fold.

B2: wild-type PTP1B, catalytic domain (residues 1 to 321) (protein)
chain: T1 sequence (P18031 1-321 Q262A) with A262Q
For orientation: Kd means the constant that tells how readily two partners part at equilibrium. With B2, in series [3], the Km was 2.6 ± 0.3 µM and the kcat is reported as 30 ± 1 s^−. Also, the Kd in series [4] is 240 ± 50 nM. For the same molecule, in series [5], the Km is 2400 ± 200 µM and the kcat turned out to be 9.8 ± 0.5 s⁻¹. Also, the “level of pTyr in the EGF receptor / enhancement of EGF receptor phosphorylation” value in the series on EGF receptor is given as “comparable to that in the vector control”. Further, the Km (hydrolysis of the EGFR 988-998 peptide, 25 C, pH 7.0) in series [6] stood at 2.6 µM.

The record behind these values is patent publication US8071348B2, “Protein tyrosine phosphatase substrate-trapping double mutant and uses thereof” (Albert Einstein College of Medicine of Yeshiva University, priority 2002, dated 2011).
